The results in this text go back to the DeepSol protein solubility set.

A short description of this data set: soluble on expression in E. coli; label from the status in PepcDB or PDB records.
With “MSVLDALWEDRDVRFDLSAQQMKTRPGEVLIDCLDSIEDTKGNNGDRGRLLVTNLRILWHSLALSRVNVSVGYNCILNITTRTANSKLRGQTEALYILTKCNSTRFEFIFTNLVPGSPRLFTSVMAVHRAYETSKMYRDFKLRSALIQNKQLRLLPQEHVYDKINGVWNLSSDQGNLGTFFITNVRIVWHANMNDSFNVSIPYLQIRSIKIRDSKFGLALVIESSQQSGGYVLGFKIDPVEKLQESVKEINSLHKVYSASPIFGVDYEMEEKPQPLEALTVEQIQDDVEIDSDGHTDAFVAYFADGNKQQDREPVFSEELGLAIEKLKDGFTLQGLWEVMS”, the “soluble on expression in E. coli” value was “soluble”.

Consider “MKRLNCRRKGIRVRILAIDTSNQTLSIAVCENQKILGSYTATVKRNHSLTLMPAIDYLMSQLNLAPTAIDRFVVAEGPGSYTGLRLGVTTAKTLAYTLKKELVGISSLQTLAANCVGQTGLIVPLFDARRKNVYAGAYRFVNGVWQNELPDQHISLRELLEQLKNEPNLFFVGEDVEKFTEEIAQIIPHGEICDVPQWQIPNAAVLAALGSVAEPVENVHGFLPAYLKKVEAEENWLKTHTPNGESYVEKLLEHHHHHH”, for which the “soluble on expression in E. coli” value is given as “not soluble”. As to “MNIKRITTEADLHEALKIRRGVFIEEQHVSEADEFDEFDTLQEQCQHILVYHENQPVGTGRARIVGHTAKLERICILKPYRKYGLGKIIVSGLEEIMKEKGLTSYKLHGQTQAAGFYQKLGYQISSQEFMEDGIPHVLMTKEISRNITLEHHHHHH”, the “soluble on expression in E. coli” value was “not soluble”.

On to “MELSPAERQLLLAHRLAVFDGCVVYDAQPPVSAEHVQRLAEGLAGPIPEDLLRLWRTCFGGRLGYDLEVDYDGHRHPFSFSELFYPDSDGYHDLWGWIEHERELAAEAAAEEGRDWNGKLAYLPFGGFEYLERLYVCVEPGPEHGAVIAWSHGLPPAWAGRLHQDSVTRLADDVGGLFRLLSFEQDPFDAENACGVADELLEALDALEAAGEPGKALKGRLEVLLRQRILDWRPALADGSLAAEPRLRQLALAEAAQDGDIDLLQRLRDAGCDFAETLRGRGGVLEACLARGRLEAARWLLDQGVAVHQDSLQIGAAHLDAVLAERLLRLGAISDPNTVLLALQYGDADAARIMARPLLEESPARANALRLALASRAERERSDARRVRSGKMGSNRSPDDYLALAERLERFLAELPG”, for which the “soluble on expression in E. coli” value is reported as “not soluble”. On to “GAMDPEFQQSKVAPSSAASRPVLSSRSDQSQKNEVFLDVVERLSVLIASNGSLLKVDVQGEIRLKSFLPSGSEMRIGLTEEFSVGKSELRGYGPGIRVDEVSFHSSVNLDEFESHRILRLQPPQGELTVMRYQLSDDLPSPLPFRLFPSVQWDRGSGRLQVYLKLRCDLLSKSQALNVRLHLPLPRGVVSLSQELSSPEQKAELAEGALRWDLPRVQGGSQLSGLFQMDVPGPPGPPSHGLSTSASPLGLGPASLSFELPRHTCSGLQVRFLRLAFRPSGNANPHKWVRHLSHSDAYVIRI”, for which the “soluble on expression in E. coli” value is listed as “soluble”.

On to “MPLRQKRLYWPLFFRDDLIMEKNKLQLEYVFDRVSTRSLWRYLSTPDGLSEWFAYDVRLEDNGDFYFQWDKNSGEKASVLEQREGERIRFQWHREQDQNACFEFVIHHSELTGGKSLEVIDYIAPEEVADMEHFWNNLISRLRLSLGAPE”, for which the “soluble on expression in E. coli” value is on record as “not soluble”. The result for “MRSIVGDLLLLRLGDVAEGPMNQRLYRAIREAILDGAIAADTRLPATRDLAAELGIARNTVVHVYSQLQAEGYTHSRQGNGTFVTASLPDAYLASGRHARRPAIAAVRPTLSERGARIVDQVSASPYQWGAFMPGVPDLTEFPHQKFGRLFSTLWRNPHPEMLTYAYGGGLPALREALAQHLALTRSIDCDPEQIIITEGSHQAIDLATRILGGHGDLAWIENPGYWGARSVLIANGIRIEPLPVDEEGMQLPAEPVAQPPRFIFVTPSHQYPLGSVMSLARRRQLLALARSWGSWIIEDDYDSEFRFSGRPISSLQGLEPDAPVIYLGTFSKTLYPGLRVGYLVLPKALAGAFQAAHAELYREGHLVTHAVLASFIAEGHYAAHIRRMRMLYGRRRAILVNLIERRLGAQWLHPDSSDAGLHLVLDFPSGLDDKQVMQAAHARGVLTRALSRYYAEGTTPRQGLLLGYACVPENDIARKFELVLDSLAEVAQRSRA” reads “not soluble”. The result for “MSDSTPKTPRGFVVHTAPVGLADDGRDDFTVLASTAPATVSAVFTRSRFAGPSVVLCREAVADGQARGVVVLARNANVATGLEGEENAREVREAVARALGLPEGEMLIASTGVIGRQYPMESIREHLKTLEWPAGEGGFDRAARAIMTTDTRPKEVRVSVGGATLVGIAKGVGMLEPDMATLLTFFATDARLDPAEQDRLFRRVMDRTFNAVSIDTDTSTSDTAVLFANGLAGEVDAGEFEEALHTAALALVKDIASDGEGAAKLIEVQVTGARDDAQAKRVGKTVVNSPLVKTAVHGCDPNWGRVAMAIGKCSDDTDIDQERVTIRFGEVEVYPPKARGDQADDALRAAVAEHLRGDEVVIGIDLAIADGAFTVYGCDLTEGYVRLNSEYTT” reads “soluble”; that for “MGSDKIHHHHHHMNIAIDARGINLYRGTGIGTYTENLVRELLNIDEENSYTLYWYGNNYKDFIKSNTKINIVSKGCHSFFEKCYFPENIIKNSIEIYHVPQNGIGLDQNVSCIKVSTVHDLIPYIMPETVGKGYLLKFLKNMPFIIENSDAILTVSEYSKKDILKYFPINEDKIYVTPLAANYNYKPLSREHCKKFIEKNYSISDPFVLYLGGFSKRKNVRNLILAFADASKKLSKKHNLVIIGLCRDELESLKDLCRHLNISNEVIFTGYIGERFLPVFYNACELFVYPSLYEGFGLPVLEAMSCKTPVVTSNISSIPEIAGDSAVLINPLDTSELRDAILNILEDSKLKQKLSIEGFNRSRKFSWKNTSKKTLEAYSNIYNTFA”, “not soluble”. With “MAHHHHHHMTKSYLNQDQQLRAQQVYTTHKHLKELSMATKEALTYHDKYLAAMEHVMSCLLNNSDALEDARKHLTQEAAVDIQPTFPTAGRLAAAYSNWRVSAELHMMRTELEFLKEVSTTGHEAVKKTKNAVHGLEKVAKKCAHVNSPEFEAKISSKSGKALEKLLHEQRETNTMMMSIENAIKKDMMSLATSWSAKLVTRGDALYTAFRSLGCRTVACFPTTDPTLSQGMPPPAAGYVLSQPSSASTSVPYSGGTAVGHGTPSTLPAAQSVECAAVPLSSAGEGAAAGVKLEFNLNEGKPVSR” the entry was “soluble”. Turning to “MSLTPRDHTLILIDYQSQMAFATHSIDIPTLRNNAGLVASAAAGFGVSAILTTVAEKSFSGPMFDEVTAPFPDLRMLDRTSMNTWEDAAVIDRVNQIGKGRIVLAGLWTSVCIVGPALSALDQGFEVYVIADACGDISAEAHERAMQRMVQAGARPITSLQYLLELQRDWARTDTYELTTGIAAKLGGGYGLGIRYAKTMFGGHEGHHHHHH”, the “soluble on expression in E. coli” value is “soluble”. The result for “MPESIPQFYKRIQSCDLQSDTTYSKEKPYFNIFSRQCNFGTVQFSYREFYKVTLIIGVGKLYYADKWILVNRPALLFSNPLVPYAWESISEEQKGVFCIFNERFVQSEEKNGSLANTPLFKVTGDKVFFLDDTQVAKVLDIYTQMQEENQSDYVNKFDVLRCYLHLLIHTALKMQDSNRYESHLNASQRITELFIELLDRQFPIDYPHAVLNLRTPADYANRLSVHVNHLNKVIKDTTGKTTSEMIAERIIKECTQYLLHSNLSISEIAYSLGFETVSYFSKFYRKHTGKSPSEVRERTII” reads “not soluble”.

For “MKTAEAAKGRWPEILEHFDLPPITGKNHYRGECPVCGARGKFRIDDRDGAGTWICVCGSGDGMKLVTLTQGKPFNEICTEIDRLIGNDYQRVKIPVNSSATSLRKRVLSKFSKLEALRGTSGAAYLNSRGIFNLPAEAIRFNARQRHNGCVFQSLYSLATDDKGELCYLHQTLLDGAKKADIGSSSKRLKSLQEDNYLDHARSVAIRMFPVASTLGIAEGIETALSAHQIYKVNTWATINSGFMKKFRVPAGVLHLIIFADRDENSATGLAAAYECAHANLMAKNDLQRVSVYWPDHGDFNNMLMNGDQVRELVFHKKKVAA”, the “soluble on expression in E. coli” value is “not soluble”.

In the case of “QETEDPACCSPIVPRNEWKALASECAQHLSLPLRYVVVSHTAGSSCNTPASCQQQARNVQHYHMKTLGWCDVGYNFLIGEDGLVYEGRGWNFTGAHSGHLWNPMSIGISFMGNYMDRVPTPQAIRAAQGLLACGVAQGALRSNYVLKGHRDVQRTLSPGNQLYHLIQNWPHYRSP”, the “soluble on expression in E. coli” value is “soluble”.
